Values quoted from earlier work as cited in patent publication US10544449B2, “Bis-biotinylation tags” (Pacific Biosciences of California, Inc., priority 2013, dated 2020).

Legend:
[1] = compared with streptavidin; cited from earlier work
[2] = cited from earlier work

traptavidin
slower biotin off-rate [1]: ~10 fold

streptavidin
accumulation in kidney, share of injected dose ([2]; injected streptavidin): 15-20%
time remaining in the kidneys ([2]; mice, rats, and rabbits): 3 to 4 days
